Results published in publication PMC8791620 (Science Advances, 2022).

Tests used:
[1] = molecular target: T1, Trs23 (subunit of core TRAPP/TRAPPI in TRAPPII) (S. cerevisiae, UniProt Q03784 1-219); experiment: cryo-EM structure
T1 sequence (looked up): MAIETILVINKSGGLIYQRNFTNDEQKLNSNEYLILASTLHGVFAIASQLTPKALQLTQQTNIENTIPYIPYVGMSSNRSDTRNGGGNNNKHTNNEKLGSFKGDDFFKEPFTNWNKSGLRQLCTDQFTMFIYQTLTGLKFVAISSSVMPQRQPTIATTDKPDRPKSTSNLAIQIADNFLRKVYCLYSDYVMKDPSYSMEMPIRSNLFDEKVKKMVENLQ

[2] = molecular target: T2, Bet3 (subunit of core TRAPP/TRAPPI in TRAPPII) (S. cerevisiae, UniProt P36149 1-193); experiment: cryo-EM structure
T2 sequence (looked up): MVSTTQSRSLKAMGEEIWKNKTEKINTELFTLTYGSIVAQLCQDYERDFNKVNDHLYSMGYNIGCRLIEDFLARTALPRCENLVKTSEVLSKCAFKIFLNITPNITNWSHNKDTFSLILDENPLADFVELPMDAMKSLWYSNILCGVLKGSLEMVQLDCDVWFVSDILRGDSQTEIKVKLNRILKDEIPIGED

- binding result [1]: binds
- binding result [2]: binds
B1: Bet5 (subunit of core TRAPP/TRAPPI in TRAPPII) (natural protein, S. cerevisiae, UniProt Q03630 1-159, looked up)
chain: MGIYSFWIFDRHCNCIFDREWTLASNSASGTINSKQNEEDAKLLYGMIFSLRSITQKLSKGSVKNDIRSISTGKYRVHTYCTASGLWFVLLSDFKQQSYTQVLQYIYSHIYVKYVSNNLLSPYDFAENENEMRGQGTRKITNRNFISVLESFLAPMVNQ
